Assay results published in patent US20160177324A1, “NOVEL PROTEIN AND GENE RELATED TO FLAVONOID O-METHYLTRANSFERASE (FOMT) AND THEIR USES THEREFORE” (INSTITUTE OF BOTANY, THE CHINESE ACADEMY OF SCIENCES, priority 2013, published 2016).

Legend:
[1] = system: Nicotiana tabacum cv.Nc89; test: Flavonoid O-methyltransferase activity in transgenic tobacco; type: in vivo
From the text: The full length genes were introduced with a BamHl site and an XhoI site on 5′- and 3′-end by PCR with primers SEQ No. 5 & 6. The double digested fragment of interest and eukaryotic expression vector pBI121 with BamHl site and an XhoI were ligated. Then the appropriate constructs were introduced into Agrobacterium strain EHA105 by electroporation.
Leaf of Nicotiana tabacum cv.Nc89 plant (Donated by Professor Silan Dai, Beijing Forestry University) was disinfected by 75% ethanol for 30 s, followed by 2% sodium hypochlorite for 3 minutes, and then washed with sterile water for three times. The leaf was cut into squares (25 mm^2) A single colony of Agrobacterium strain EHA105 with pBI121-FOMT construct was used to inoculate with 2 mL of YEB medium (per liter: 5 g of beef extract, 1 g of yeast extract, 5 g of sucrose, and 0.5 g of MgSO4.7H2O), supplemented with 50 mg mL^−1 kanamycin and 25 mg mL^−1 Rifampicin. The culture was incubated at 28° C. until OD600 0.6-0.8, and the bacteria were pelleted by centrifugation at 5000 rpm for 5 minutes. The cells were washed by MS liquid medium and resuspended pellets with appropriate volume of MS liquid. The tobacco leaf squares were dipped into the bacteria solution for 8 minutes and cultivated on MS media containing 2.0 mg L^−1 6-benzylaminopurine (6-BA), 0.2 mg L^−1 1-naphthylacetic acid (NAA), and 500 mg L^−1 ceflomine. The explants were transferred to fresh selected medium after two weeks. When the regenerating plantlets grow to 2 cm, move them to MS media containing 0.2 mg L^−1 NAA to induce root. After four weeks, the transgenic tobacco plantlets were transferred to pots and kept in the greenhouse till flowering. The positive transgenic lines were selected by PCR, and transgenic plantlets with empty plasmid were used as control. The anthocyanins in transgenic petals were detected with an HPLC system.
Appropriate amount of sample (petal, fruits) was powdered with mortars and pestles and extracted for the first time with 2 mL 2% (v/v) formic acid methanol solution shaken in a QL-861 vortex (Kylinbell Lab Instruments, Jiangsu, China), sonicated in KQ-500DE ultrasonic cleaner (Ultrasonic instruments, Jiangsu Kunshan, China) at 20° C. for 20 min, centrifuged in SIGMA 3K30 (SIGMA centrifugers, Germany) (12000 rpm, 10 min), and the supernatant was collected. Additional 2 mL and 1 mL extraction solution was supplemented to the residue, and repeated aforesaid operation for the second and third times. All extract was pooled and filtrated through 0.22 μm reinforced nylon membrane filters (Shanghai ANPEL, Shanghai, China) before the HPLC-DAD and HPLC-ESI-MS^n analyses. Three replicates were performed for each sample. […]
HPLC-ESI-MS^n analysis was carried with an Agilent-1100 HPLC system equipped with a UV detector coupled to a LC-MSD Trap VL ion-trap mass spectrometer via an ESI source (Agilent Technologies, Palo Alto, Calif.). […] The MS conditions were listed as follow: negative-ion (NI) mode; capillary voltage of 3.5 kV; a nebulization pressure of 241.3 kPa; and a gas (N2) temperature of 350° C. with flow rate of 6.0 L min^−1 Capillary offset voltage was 77.2 V. MS spectra were recorded over the range from m/z 50-1000.

[2] = Biochemical characterization of PsFOMT reaction conditions (pH, temperature, divalent cations, Mg2+ concentration)
Description: For quantitative analyses, reaction conditions were optimized. The pH dependence of FOMTs activity was assessed in the pH range of 4.5 to 8.5 using MES (4.5-6.5) and Tris-HCl (7.5-8.5) buffer. The effect of divalent cations on enzyme activity was estimated by adding to the reaction mixture containing 10 mM MgCl2, CaCl2, ZnCl2, MnCl2, CoCl2 or EDTA. The proper concentration of metal ion was assessed by testing different concentrations of MgCl2 (0.1, 0.2, 0.5, 1.0, 5.0 and 10 mM). Incubation temperature was set at 25, 30, 35 and 40° C. to detect the effect on enzyme activity.
The reaction system was according to Hugueney et al. with some modification (Hugueney, P., et al., A novel cation-dependent O-methyltransferase involved in anthocyanin methylation in grapevine. Plant Physiology, 2009. 150(4): p. 2057-2070.). Purified recombinant FOMT (2 μg) was assayed in a final volume of 200 μL containing 200 μM SAM, 1 mM MgCl2, 14 mM β-mercaptoethanol, 100 mM Tris, pH 7.5, and 20 μM flavonoid substrates. Incubation was performed at 35° C. and stopped with 200 μL methanol containing 2% formic acid. For enzyme kinetic studies, purified FOMT was incubated based on the above condition with the exception that a range of substrate concentrations from 5 to 200 μM were used for Km determination. Reaction product was analyzed by a Dionex HPLC system (Sunnyvale, Calif.), equipped with a P680 HPLC pump, an UltiMate 3000 autosampler, a TCC-100 thermostated column compartment and a Dionex PDA100 photodiode array detector. The analytical column was C18 column of ODS 80Ts QA (150 mm×4.6 mm, 5 μm i.d., Tosoh, Tokyo) protected with a C18 guard cartridge (Shanghai ANPEL Scientific Instrument, Shanghai). The following solvent and gradient were used: A, 10% aqueous formic acid; B, methanol; constant gradient from 10 to 36% B within 15 min and back to 10% B in 3 min; the flow rate was 0.8 mL min^−1; Column temperature was maintained at 35° C.; 20 μL of analyte was injected. Chromatograms were obtained at 525 nm for anthocyanins and 350 nm for other flavonoids, and photodiode array spectra were recorded from 200 to 800 nm. Km and Vmax values were calculated from Lineweaver-Burk plots.

B1: PsFOMT: flavonoid O-methyltransferase from tree peony Paeonia suffruticosa cv. 'Gunpohden', SEQ ID NO: 3; recombinant MBP fusion protein (protein, listed as Paeonia suffruticosa)
chain: MAESDRKGILKSEALLKYILETSVYPREHEQLKQLRQATVDKYKYWSVMNVPADEGQFLSMLLKIMNAKKTIEVGVFTGYSLLTAALALPTDAKITAIDPDGEAYETGLPFIKKAGVEHKINYIQADAMSVLDDLVTNGKEEGSFDFAFVDADKENYAKYHEPLMKLVKIGGIIGYDNTLWFGSVALSDGDEMKEFQEKGRRIFREFNTFLAADPRIELAHISIGDGLALCRRLY
modifications: MBP fusion
notes: recombinant MBP fusion protein
flower color compared with control lines ([1]; transgenic tobacco flowers): tend to purplish | methyltransferase function in tobacco petal (new anthocyanin Pn3R detected) ([1]; transgenic tobacco petals vs empty vector): performed as a methyltransferase | content of peonidin 3-O-rutinoside (Pn3R) in total anthocyanin (TA) ([1]; transgenic tobacco petals, 35S:: lines): much higher | activity in the presence of EDTA ([2]; 10 mM EDTA): could not been detected | influence of different divalent cations on activity ([2]; 10 mM MgCl2, CaCl2, ZnCl2, MnCl2, CoCl2): most active in the presence of Mg^2+ | effect of increasing incubation temperature on activity ([2]; 25-40° C.): accelerated | optimal concentration of Mg^2+ ([2]; MgCl2 0.1-10 mM tested): 1.0 mM | pH optimum ([2]; on the substrate of Qu3R): 7.5 | pH dependence range of activity in vitro ([2]; substrate Qu3R, pH 4.5 to 8.5 tested): 6.5-8.5
